Where two headings read alike, the source gives them in different places. Values belong to the molecule of their own block, whether it stands above or below them.
Columns and labels:
[1] = target: S. pombe Mre11 catalytic domain, SpMre11_(15–413) (S. pombe); test: crystal structure
[2] = target: S. pombe Mre11 catalytic domain, SpMre11_(15–413) (S. pombe); test: crystal structure; remark: listed apart in the source
[3] = target: SpMre11^cd R85A (S. pombe)
[4] = target: S. pombe Mre11 catalytic domain, SpMre11_(15–413) (S. pombe); test: crystal structure; remark: listed apart in the source

stoichiometry N [1]: 2 | stoichiometry N [2]: 2
Molecule: S. pombe Mre11 catalytic domain, SpMre11_(15–413) (domain or fragment)

stoichiometry N [3]: 2
Molecule: SpMre11^cd R85A (domain or fragment)

stoichiometry N (Nbs1 per Mre11 (2:2)) [4]: 1
B1: S. pombe Nbs1 Mre11 interacting region, residues 474–531 (domain or fragment)
chain: ESEDDKAFEENRRLRNLGSVEYIRIMSSEKSNANSRHTSKYYSGRKNFKKFQKKASQK
